The source of these data is patent US20220332821A1 (Novartis, published 2022).

As a reminder, the Kd is a measure of binding affinity in units of concentration.

One test concerns the target T1, Human CD3-biotin (human).
T1 chain: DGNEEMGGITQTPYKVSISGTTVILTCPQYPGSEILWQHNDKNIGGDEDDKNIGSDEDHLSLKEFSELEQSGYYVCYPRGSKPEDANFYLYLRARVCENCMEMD
Put plainly: method not stated; mean of three biological replicates.

The target of a further test is T2, Cyno BCMA-Fc (cynomolgus, UniProt A0A2K5UD97 1-53).
T2 construct: not shown: Fc part
The description is as above.

Another test has as its target T3, Mouse BCMA-Fc (mouse, UniProt O88472 1-49, limits assumed, not fully specified).
T3 construct: not shown: Fc part
T3 chain (looked up): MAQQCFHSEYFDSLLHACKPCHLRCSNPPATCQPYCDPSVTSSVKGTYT
The description is as above.

For test [1], the target named is T4, BCMA on KMS11 myeloma cells (UniProt Q02223 1-184).
T4 sequence (looked up): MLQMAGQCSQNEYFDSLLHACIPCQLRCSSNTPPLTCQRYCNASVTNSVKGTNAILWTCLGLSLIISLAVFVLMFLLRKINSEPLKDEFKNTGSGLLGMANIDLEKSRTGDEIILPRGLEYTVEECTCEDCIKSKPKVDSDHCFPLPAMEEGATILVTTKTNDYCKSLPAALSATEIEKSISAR
Put plainly: cell-based or functional assay.

For a further test, the target named is T5, soluble BCMA (UniProt Q02223 1-54).
T5 sequence (looked up): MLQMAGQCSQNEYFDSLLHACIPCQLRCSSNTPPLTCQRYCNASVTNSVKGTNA
In words: cell-based or functional assay.

T2 sequence (A0A2K5UD97 entry or part of it): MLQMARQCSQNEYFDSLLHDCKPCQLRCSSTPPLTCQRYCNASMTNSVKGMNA

B1: BSBM3 (bispecific antibody)
heavy: not shown
light: QSALTQPASVSGSPGQSITISCTGTSSDVGGYNYVSWYQQHPGKAPKLMIYDVSNRLRGVSNRFSGSKSGNTASLTISGLQAEDEADYYCSSYTSSSALYVFGSGTKVTVLGQPKAAPSVTLFPPSSEELQANKATLVCLISDFYPGAVTVAWKADSSPVKAGVETTTPSKQSNNKYAASSYLSLTPEQWKSHRSYSCQVTHEGSTVEKTVAPTECS
chain: not shown
notes: Heterodimeric IgG1 format: anti-BCMA Fab half antibody and anti-CD3 scFv-Fc half antibody; also called BSMB3
On to B1, for which binding with Human CD3-biotin was put at a Kd of 8.78 nM. The molecule also yielded an equilibrium dissociation constant (Kd) in the test with Cyno BCMA-Fc of 1.29 nM. Also, the equilibrium dissociation constant (Kd) with Mouse BCMA-Fc was 1.15 nM. In test [1], the “EC50 in RTCC assay (without added recombinant soluble BCMA)” value was around 0.07 µg/mL; the “EC50 in RTCC assay, BSBM3 with AL-102 (gamma secretase inhibitor that raises surface BCMA)” value came out at 0.02 nM; the “EC50 of KMS11-Luc cell death in RTCC assay, BSBM3 alone” value was found to be 1 nM. Also, in the test with soluble BCMA, the “EC30 in RTCC assay, fold increase with 30 ng/mL soluble BCMA” value was 6 fold; the “EC30 in RTCC assay, fold increase with 100 ng/mL soluble BCMA” value was 15 fold; the “EC30 in RTCC assay, fold increase with 300 ng/mL soluble BCMA” value stood at 41 fold.
